In ChEMBL document CHEMBL3085760, “Novel polyamine analogues: from substrates towards potential inhibitors of monoamine oxidases” (Eur J Med Chem, 2013):

Experiments:
[1] = substrate: CN(CCCCCCCCCCCCN)Cc1ccccc1; test: (§1) Activity at recombinant human MAO-B expressed in baculovirus infected BT1 cells assessed as hydrogen peroxide generation rate preincubated for 30 mins by Amplex Red assay
[2] = substrate: NCCCCCCCCCCCCNCc1ccccc1; test: as §1
[3] = substrate: NCCCCCCCCCCCCNCc1cccs1; test: as §1
[4] = substrate: NCCCOCCCCOCCCNCc1cccs1; test: as §1
[5] = substrate: CN(CCCCCCCCCCCCN)Cc1ccccc1; test: (§2) Activity at recombinant human MAO-A expressed in baculovirus infected BT1 cells assessed as hydrogen peroxide generation rate preincubated for 30 mins by Amplex Red assay
[6] = substrate: NCCCCCCCCCCCCNCc1ccccc1; test: as §2
[7] = substrate: NCCCCCCCCCCCCNCc1cccs1; test: as §2
[8] = substrate: CN(CCCCCCCCCCCCN)Cc1ccccc1; test: (§3) Activity at recombinant human VAP-1 assessed as hydrogen peroxide generation rate preincubated for 30 mins by Amplex Red assay
[9] = substrate: NCCCCCCCCCCCCNCc1ccccc1; test: as §3
[10] = substrate: NCCCCCCCCCCCCNCc1cccs1; test: as §3
[11] = substrate: NCCCCCCCCNCCCNCc1cccs1; test: as §3
[12] = substrate: NCCCOCCCCOCCCNCc1cccs1; test: as §3

B1: Amine oxidase [flavin-containing] B (Homo sapiens) (protein)
chain: MSNKCDVVVVGGGISGMAAAKLLHDSGLNVVVLEARDRVGGRTYTLRNQKVKYVDLGGSYVGPTQNRILRLAKELGLETYKVNEVERLIHHVKGKSYPFRGPFPPVWNPITYLDHNNFWRTMDDMGREIPSDAPWKAPLAEEWDNMTMKELLDKLCWTESAKQLATLFVNLCVTAETHEVSALWFLWYVKQCGGTTRIISTTNGGQERKFVGGSGQVSERIMDLLGDRVKLERPVIYIDQTRENVLVETLNHEMYEAKYVISAIPPTLGMKIHFNPPLPMMRNQMITRVPLGSVIKCIVYYKEPFWRKKDYCGTMIIDGEEAPVAYTLDDTKPEGNYAAIMGFILAHKARKLARLTKEERLKKLCELYAKVLGSLEALEPVHYEEKNWCEEQYSGGCYTTYFPPGILTQYGRVLRQPVDRIYFAGTETATHWSGYMEGAVEAGERAAREILHAMGKIPEDEIWQSEPESVDVPAQPITTTFLERHLPSVPGLLRLIGLTTIFSATALGFLAHKRGLLVRV
Km [1]: 12 µM
Km [2]: 50 µM
Km [3]: 18 µM
Km [4]: 401 µM

B2: Amine oxidase [flavin-containing] A (Homo sapiens) (protein)
chain: MENQEKASIAGHMFDVVVIGGGISGLSAAKLLTEYGVSVLVLEARDRVGGRTYTIRNEHVDYVDVGGAYVGPTQNRILRLSKELGIETYKVNVSERLVQYVKGKTYPFRGAFPPVWNPIAYLDYNNLWRTIDNMGKEIPTDAPWEAQHADKWDKMTMKELIDKICWTKTARRFAYLFVNINVTSEPHEVSALWFLWYVKQCGGTTRIFSVTNGGQERKFVGGSGQVSERIMDLLGDQVKLNHPVTHVDQSSDNIIIETLNHEHYECKYVINAIPPTLTAKIHFRPELPAERNQLIQRLPMGAVIKCMMYYKEAFWKKKDYCGCMIIEDEDAPISITLDDTKPDGSLPAIMGFILARKADRLAKLHKEIRKKKICELYAKVLGSQEALHPVHYEEKNWCEEQYSGGCYTAYFPPGIMTQYGRVIRQPVGRIFFAGTETATKWSGYMEGAVEAGERAAREVLNGLGKVTEKDIWVQEPESKDVPAVEITHTFWERNLPSVSGLLKIIGFSTSVTALGFVLYKYKLLPRS
Km [5]: 44 µM
Km [6]: 43 µM
Km [7]: 80 µM

B3: Amine oxidase [copper-containing] 3 (Homo sapiens), Q16853 (protein)
chain: MNQKTILVLLILAVITIFALVCVLLVGRGGDGGEPSQLPHCPSVSPSAQPWTHPGQSQLFADLSREELTAVMRFLTQRLGPGLVDAAQARPSDNCVFSVELQLPPKAAALAHLDRGSPPPAREALAIVFFGRQPQPNVSELVVGPLPHPSYMRDVTVERHGGPLPYHRRPVLFQEYLDIDQMIFNRELPQASGLLHHCCFYKHRGRNLVTMTTAPRGLQSGDRATWFGLYYNISGAGFFLHHVGLELLVNHKALDPARWTIQKVFYQGRYYDSLAQLEAQFEAGLVNVVLIPDNGTGGSWSLKSPVPPGPAPPLQFYPQGPRFSVQGSRVASSLWTFSFGLGAFSGPRIFDVRFQGERLVYEISLQEALAIYGGNSPAAMTTRYVDGGFGMGKYTTPLTRGVDCPYLATYVDWHFLLESQAPKTIRDAFCVFEQNQGLPLRRHHSDLYSHYFGGLAETVLVVRSMSTLLNYDYVWDTVFHPSGAIEIRFYATGYISSAFLFGATGKYGNQVSEHTLGTVHTHSAHFKVDLDVAGLENWVWAEDMVFVPMAVPWSPEHQLQRLQVTRKLLEMEEQAAFLVGSATPRYLYLASNHSNKWGHPRGYRIQMLSFAGEPLPQNSSMARGFSWERYQLAVTQRKEEEPSSSSVFNQNDPWAPTVDFSDFINNETIAGKDLVAWVTAGFLHIPHAEDIPNTVTVGNGVGFFLRPYNFFDEDPSFYSADSIYFRGDQDAGACEVNPLACLPQAAACAPDLPAFSHGGFSHN
Km [8]: 9 µM
Km [9]: 5 µM
Km [10]: 11 µM
Km [11]: 1730 µM
Km [12]: 350 µM
